Earlier results on one substance are cited in publication PMC3742580.

The target in this data set is Ras (Homo sapiens) (UniProt P01112).

Chain of RalGDS RA (Q12967 798-885): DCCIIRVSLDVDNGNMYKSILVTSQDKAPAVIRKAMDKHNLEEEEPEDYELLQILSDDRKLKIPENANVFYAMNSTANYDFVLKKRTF

Broadly, the Kd is the free concentration of one partner at which half of the binding sites on the other are occupied at equilibrium, for simple one-to-one binding. Take RalGDS RA (from UniProt Q12967): the dissociation constant Kd was 1900 nM.
